Test results from paper PMC7241556.

System: T1, Rsp (Staphylococcus aureus NCTC8325), ORF:0cc986df
T1 sequence: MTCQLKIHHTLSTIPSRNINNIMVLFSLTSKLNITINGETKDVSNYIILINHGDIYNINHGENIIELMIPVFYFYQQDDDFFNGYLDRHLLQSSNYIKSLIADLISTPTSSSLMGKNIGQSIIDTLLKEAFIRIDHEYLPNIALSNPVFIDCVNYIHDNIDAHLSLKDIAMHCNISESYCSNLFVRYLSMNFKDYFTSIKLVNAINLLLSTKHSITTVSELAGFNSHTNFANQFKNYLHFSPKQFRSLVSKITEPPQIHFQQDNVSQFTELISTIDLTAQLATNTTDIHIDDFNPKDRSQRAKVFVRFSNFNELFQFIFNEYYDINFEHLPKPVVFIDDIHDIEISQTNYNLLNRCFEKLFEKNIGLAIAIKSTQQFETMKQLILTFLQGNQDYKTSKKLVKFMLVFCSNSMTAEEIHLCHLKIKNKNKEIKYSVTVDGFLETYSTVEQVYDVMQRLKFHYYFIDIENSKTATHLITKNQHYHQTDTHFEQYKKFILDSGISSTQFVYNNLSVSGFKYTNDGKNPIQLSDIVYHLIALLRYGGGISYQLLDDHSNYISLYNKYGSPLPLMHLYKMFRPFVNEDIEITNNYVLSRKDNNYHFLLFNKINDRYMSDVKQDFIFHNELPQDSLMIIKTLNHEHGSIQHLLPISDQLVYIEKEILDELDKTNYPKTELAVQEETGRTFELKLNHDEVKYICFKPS
Assay: EMSA

Sequence: TGATTTTAAAAATTTCCATGTTTTACATTTAAATGATAGATTTCAATATATATTAGGCAGGAGAGAGAAATATGACATGCCAACTTAAA (double strand) [rsp promoter 89 bp]
- binding: no binding

Sequence: ACTTAAATACGAATTCAGGCAACTTAATTGTGTTAAATACAGTTTTGAATGCCTAACTGTATTTCTTTTCTCTTTAAAATACAGTTAAGTACATTATAAGATGTTGTGCGGATAAACAAACTAATTGCATCAAATTTATTTTAAAATAACAACAACAAAACGTTAAGCGAATAACATTTCGGTGATTTAAAAGCTACGCACGTTTTTGTTATCTTCAAATTTAAATTTTAAGGAGTGTTTTCAATGGAAGGTT (double strand) [psmβ promoter 253 bp]
- binding: binds

Sequence: GCCAGCGATGATACCCATTAAGATTACCTCCTTTGCTTATGAGTTAACTTCATTGTACATAGTTATCTTGTGCGTAATTGATTTT (double strand) [psmα promoter 85 bp]
- binding: no binding

Sequence: AACCTTCCATTGAAAACACTCCTTAAAATTTAAATTTGAAGATAACAAAAACGTGCGTAGCTTTTAAATCACCGAAATGTTATTCGCTT (double strand) [psmβ promoter 89 bp]
- binding: no binding

Sequence: TAGTGTTGTTGTTACTGAGCTGACTATACGTGTTTTCATTTTCATCATCCTTCTATTTTTTAAAACGATTTGAGGAAACAATAATCAATATGTCAATTTAGAATATTGCA (double strand) [hla promoter 110 bp]
- binding: no binding
